Article doi:10.1101/2022.05.18.492574

Target: GyrA14 (UniProt P0AES4)
Test: SEC-MALS

- stoichiometry N: 2
Substance: GyrA14 (from UniProt P0AES4 363-494) (domain or fragment)
